In patent US5968509:

Target: human CD3 antigen (human) (UniProt P07766)
Test: competitive flow cytometry on HPBALL cells; competitor: biotinylated monovalent humanised CD3 Mab

Chain of UniProt P07766 (P07766 23-207): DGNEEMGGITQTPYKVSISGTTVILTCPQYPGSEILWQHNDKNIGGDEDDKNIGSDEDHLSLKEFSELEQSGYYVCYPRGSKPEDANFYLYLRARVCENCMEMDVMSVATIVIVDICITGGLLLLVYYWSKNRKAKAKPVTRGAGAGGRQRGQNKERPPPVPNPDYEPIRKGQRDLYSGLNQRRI

B1: humanised bivalent CD3 Mab (antibody, V domains shown)
VH: EVQLLESGGGLVQPGGSLRLSCAASGFTFSSFPMAWVRQAPGKGLEWVSTISTSGGRTYYRDSVKGRFTISRDNSKNTLYLQMNSLRAEDTAVYYCAKFRQYSGGFDYWGQGTLVTVSS
VL: DFMLTQPHSVSESPGKTVIISCTLSSGNIENNYVHWYQQRPGRAPTTVIFDDDKRPDGVPDRFSGSIDRSSNSASLTISGLQTEDEADYYCHSYVSSFNVFGGGTKLTVL
fold concentration for 50% competition, against rat YTH12.5 Mab: 1.3 fold
